# Reference: the supplement of paper PMC9170038
# System: K4 kissing-loop RNA reporter
# Test: apparent KD of K4 kissing-loop reporter; higher = weaker reporter binding
# Settings: Eterna round: R107
# Method: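 RNA-MaP round R107: designed RNA switches with theophylline, tryptophan, arginine or FMN aptamers are transcribed on-chip within common flanks. They are titrated with a labelled K4 kissing-loop RNA reporter in RNA-MaP buffer (100 mM Tris pH 7.5, 80 mM KCl, 4 mM MgCl2), without ligand or with the indicated ligand. Median apparent KD per design.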
# [1] = input ligand: theophylline 20 uM
# [2] = input ligand: tryptophan 2.4 mM
# 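Also: bound reporter read as fluorescence of individual clusters on recovered sequencing chips by microscopy, with normalized cluster intensities fitted with a binding model.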
Sequence,apparent KD of K4 kissing-loop reporter (input ligand: FMN 200 uM) [nM],apparent KD of K4 kissing-loop reporter (input ligand: arginine 13.2 mM) [nM],apparent KD of K4 kissing-loop reporter (input ligand: none) [nM],apparent KD of K4 kissing-loop reporter [1] [nM],apparent KD of K4 kissing-loop reporter [2] [nM]
UGUCUGAUGGAAACAUCGGACUUUACUGAUACCAGUAUCGAUAGAUACCCUUGGCAGCAGAAUCAGUAAUAACGAGUGAUGUUCG [Ex Theophylline A K4 3],347,280,386,317,310
UGUGGAGGAUAUGAUACCAGCAGUGAGAGAGAGGAAGUAUAGUGAUGUUAUAUGAGAGAAUGCCCUUGGCAGCGUGUGUAGUAGG [SSTheophylB.J],189,165,200,153,210
UGUGUUUACCUGACUCAGUGAUGUUGAGAAGGAGCGUGCGAAAGCACAGGUAGGUCGCUCAAUCCUUAAUCAGGUGAGCACUAAA [#SwitchBubble 13 #K4Early],394,507,502,447,359
UUAAUAUUGUCGGCCGCCACUGUUUAGUAUUUUGUAUAAUCUAUUUCAAAGUGAUGUUUUGAUUCCAGGACCGGGACAUUUGAUA [JR_Nu_ExcTryptoB_Sub031],597,414,536,486,298
UUAAUUCCGGUGGUGUGUAGAACACAGUUACGAGGACCGGUACGGCCGCCACUCGGAUGCACUUUCAGUGAUGUUGAAAGCAUCA [Same State Tryptophan A GF 1],670,514,643,498,690
UUACGAGUGAUGUUCGAAUAAAUCCAUUCAGAGGAUAUAGUAUUAACUAGAAGGCUGAAACCAACUUCGAGUGAUGUUCGAGGAU [Same State FMN A GF 3],94.5,87.7,108,88.4,90.8
UUACUGAGUGAUGUUUGGAAAUAUCCUAGGCAGGAUAUGCGGAAACGCAGAAGGGCCACCUUCUAGUGAAGGAAACUUCGCUAUU [Ex FMN A 4],536,284,423,397,379
UUAGAAGUAUACUUCAAGAGGUAUGCUGAUACCAGAGUCAAUUGACUCCCUUGGCAGCGGAUCGAGUGAUGUUCGUAACCUCAUU [AK3.1 SS Theophylline A],160,238,209,246,141
UUAGAGAUCUCAGGAUAUCAGUGAUGUUGGUGUGCAGAUCUGAGAUAGAAUUCUAUCUCAGAUCAAUGAGAAGGGAGAUCUCAUU [AK5 Exc FMN B],303,149,152,173,142
UUAGCAGUAUACUGCAAGACCUAUACUGAUACCAGAGCCUAUAGGCUCCCUUGGCAGCGGAUCGAGUGAUGUUCGUAAGGUCAUU [AK4.3 SS Theophylline A],651,667,1080,682,458
UUAUCAUCAGCGGCCGCCACUGCAAAUUGGAGUGAUGUUCCAAGCGUGGAUAUUGAAAUUACUAGUAGGACCGGGUUGAUGAAUU [AK 2 Ex Trypt B],158,132,158,105,159
UUCAGGUGUUCGGCCGCCACUCCAGUGAUGUUGGAGUGGCUUCACAAGGGCCAGGACAAUGUAGGGAGGACCGGGAAUAUCGCAG [Atvebeance],143,117,129,107,125
UUCGGAUAAGUCCUUCCGAAGAAGCCGGAAGGAGCGACUCAAUAGUCAGGUAGGUCGCCGGCAAGCGUAGUGAUGUUAUGCUCAC [Arg A SS t6],966,598,882,713,740
UUCUACGAGUGAUGUUCGUAGUGUAUUCGCUAGGAUAUCGUUUUUUCGAGAAGGAGUGAUGAAGUGAUACGAAAGUAUCGCUUCU [FMN A 14],223,241,352,411,292
UUCUUGAUGGAAACAUCGAGGAUUACUGAUACCAGUAUCGAUAGAUACCCUUGGCAGCAGAAUCAGUGAUCACGAGUGAUGUUCG [Ex Theophylline A K4 10],655,551,733,564,569
UUGCCUCUGGCUGAUACCAGUGAUGCAGGGUAUGAAACAGGGAGUGAUGUUCCCUGCAGCCACCCUUGGCAGCAGUUUAAGUUUG [Exclusion Theophylline B GF 21],182,152,181,158,160
